In patent US20150351390A1, “COMPOSITIONS AND METHODS FOR AUXIN-ANALOG CONJUGATION” (PIONEER HI-BRED INTERNATIONAL, INC., priority 2012, published 2015):

Key:
[1] = test system: Arabidopsis ecotype Col-0 plant; test: Arabidopsis response to spot infiltrated auxins and conjugates; assay type: in vivo, Arabidopsis thaliana; conditions: result in words
Method: The effect of auxin conjugates was assessed using Arabidoposis (Arabidopsis thialiana) ecotype Col-0 plant. Prior to studies utilizing the auxin conjugates, levels of analytical grade (98%+pure) IAA, 2,4-D and dicamba in solution were applied at various concentrations directly to developmentally similar leaves of 20-23 day old Arabidopsis seedlings by needleless syringe spot infiltration methodology, in order to determine range of auxinic response and severity. Phenotypes were documented relative to control at 1 day post-spot infiltration and subsequently every other day, up to nine days post treatment. Three concentrations were chosen based on reproducibility, and conjugated forms were then studied with 4 or more replicate treatments for each, along with appropriate negative controls (H2O and 10% EtOH).
(§1) Examples 9 and 10 utilized a spot infiltration method for the delivery of an herbicide directly to leaves of a plant. The method generally allows for the directed delivery of a variety of agents to a localized area of a plant, e.g. localized region of leaves, for screening or assessment purposes, e.g. to quickly assess the response of a plant to the agent. As used in the foregoing examples, the spot infiltration method was used to introduce specific herbicides or specific conjugates of the herbicides to seedling plant leaves. Following introduction of the herbicide or the appropriate conjugate, plants were observed daily for nine days for characteristics of epinasty, trifoliate leaf curly, chlorosis, and new growth recovery.
(§2) Briefly, a solution of the desired agent is prepared of the desired agent, e.g. as described above in Example 10, solutions (5% EtOH) of 1, 2.5 and 5 mM IAA. The solution is then drawn into a 1 mL BD™ slip-tip syringe, bulk, non-sterile syringe (e.g. Becton, Dickinson and Company, Product No. 301025) with 100 μL markings. The desired volume is then applied to the leaf, e.g. as described in Examples 9 and 10, with the tip of the syring against the leaf and positive pressure applied to the syringe plunger. Sufficient pressure is applied in order to infuse the area beneath the syringe opening, but not so much pressure as to cause a visible-to-the-eye puncture or hole to form in the leaf. Some run-off of solution around the syringe opening is expected. In the foregoing examples, two spots were applied to each of two leaves per seedling for soybean plants. […] In soybean, both spots per leaf were at the distal portion of the leaf about 1-2 cm apart. When the method was applied to Arabidopsis, two developmentally intermediate aged leaves were chosen per plant, and one spot infiltration was carried out per leaf.
Generally, for Arabidopsis, the two leaves were chosen from opposite sides of rosette. In general, the spot infiltration method is carried out on younger plants in order to minimize experimental footprint and to maintain developmental uniformity. However, the method is not limited to use on young plants and can be easily applied to older plants as determined by the goals of a particular experiment.

soybean seedlings = test: Soybean seedling response to spot infiltrated auxins and conjugates; assay type: in vivo; set-up: 1st trifoliate leaf curl / Epinasty score: scale not given here; conditions: for 1st trifoliate leaf curl / Chlorotic lesion @ app. Pnt / Epinasty score: spot infiltration; for Plant response phenotype, soybean: 1, 2.5 and 5 mM, result in words
Method: Conjugate forms of auxinic compounds when applied through spot infiltration, a needleless method to introduce exogenous agents into plant cells. Initially, various concentrations of analytical grade (98%+pure) IAA, 2,4-D, and dicamba were prepared as solutions that were applied directly to uni-foliate leaves of 9 day old soybean seedlings by spot infiltration in order to determine the range of auxinic response and severity.
Spot infiltration comprises applying a compound to be tested in composition that is applied to the surface of a plant, for example, to a leaf or other plant structure. For example, a method for testing a plant response to one or more compounds using spot infiltration comprises a) providing a composition comprising one or more compounds to be tested in a container having at least an opening for the compound enter and/or exit, and one or more elements for moving the composition into or out of the container; b) contacting at least one opening of the container with the surface of a plant and moving the composition comprising one or more compounds to at least the surface of the plant. A container and elements for moving the composition may comprise a syringe body and plunger. Moving the composition to the plant surface comprises contacting the surface with pressure sufficient for the composition to enter the cells of the plant. In an aspect, spot filtration testing comprises measuring an effect of the composition on the contacted plant and comparing that measure or effect to a plant that is not contacted with the composition.
Plant response phenotypes were documented at one day post-spot infiltration and subsequently every other day, up to nine days post treatment. […] In the studies described herein below, 5 replicate treatments for each conjugate form were conducted, along with appropriate negative controls.
as §1, §2

[2] = LC-MS assay of GH3 conjugation of 2,4-D with Asp or Glu; assay type: biochemical; conditions: LC-MS; for Detected auxin conjugates: 2,4-D-Asp: 2,4-D with Asp; for Detected auxin conjugates: 2,4-D-Glu: 2,4-D with Glu
Procedure, shortened: (§3)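 Rxn: 20 mM Tris-HCl pH 8.0, 5 mM MgCl2, 1 mM DTT, 5 mM ATP, 5 mM auxin, 5 mM Asp/Glu, 44–164 μg/mL purified His-GH3; 30° C., 3 h. MeOH quench, supernatant diluted 20×, LC-MS vs conjugate standards.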

[3] = LC-MS assay of GH3 conjugation of dicamba with Asp or Glu; assay type: biochemical; conditions: LC-MS; for Detected auxin conjugates: Dicamba-Asp: dicamba with Asp; for Detected auxin conjugates: Dicamba-Glu: dicamba with Glu
Procedure, shortened: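 GH3 superfamily homologs, found by Blast searches of public databases using AtGH3.17 (Q9FZ87), were synthesized with E. coli-optimized codons and an N-terminal his-tag, expressed in OverExpress C41(DE3) cells after 0.2 mM IPTG induction at 16° C., and Ni-NTA purified. Conjugation of dicamba with Asp or Glu was measured by LC-MS using conjugate standards.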

[4] = LC-MS assay of GH3 conjugation of IAA with Asp or Glu; assay type: biochemical; conditions: LC-MS; for Detected auxin conjugates: IAA-Asp: IAA with Asp; for Detected auxin conjugates: IAA-Glu: IAA with Glu
Procedure, shortened: as §3

## O=C(O)Cc1c[nH]c2ccccc12 [IAA, indole-3-acetic acid]
[1]; 5 mM (high dose), 1-2 days post treatment
  Phenotype, Arabidopsis: modest petiole twisting (epinasty) and leaf curl
Soybean seedlings; 1.0 mM
  1st trifoliate leaf curl: 0
  Chlorotic lesion @ app. Pnt: 0
Soybean seedlings; 2.5 mM
  1st trifoliate leaf curl: 0
  Chlorotic lesion @ app. Pnt: 0
Soybean seedlings; 5.0 mM
  1st trifoliate leaf curl: 0
  Chlorotic lesion @ app. Pnt: 0
Soybean seedlings
  Plant response phenotype, soybean: modest stem twisting and bending (epinasty)

## O=C(O)C[C@H](NC(=O)Cc1c[nH]c2ccccc12)C(=O)O [IAA-Asp]
[1]; 1, 2.5 and 5 mM, all test levels
  Phenotype, Arabidopsis: No discernable phenotype
Soybean seedlings; 1.0 mM
  1st trifoliate leaf curl: 0
  Chlorotic lesion @ app. Pnt: 0
  Epinasty score: 0
Soybean seedlings; 2.5 mM
  1st trifoliate leaf curl: 0
  Chlorotic lesion @ app. Pnt: 0
  Epinasty score: 0
Soybean seedlings; 5.0 mM
  1st trifoliate leaf curl: 0
  Chlorotic lesion @ app. Pnt: 0
  Epinasty score: 0
Soybean seedlings
  Plant response phenotype, soybean: No discernable phenotype

B1: AtGH3-11: GH3 protein, accession AAD23040 (protein, listed as Arabidopsis thaliana)
chain: MLEKVETFDMNRVIDEFDEMTRNAHQVQKQTLKEILLKNQSAIYLQNCGLNGNATDPEEAFKSMVPLVTDVELEPYIKRMVDGDTSPILTGHPVPAISLSSGTSQGRPKFIPFTDELMENTLQLFRTAFAFRNRDFPIDDNGKALQFIFSSKQYISTGGVPVGTATTNVYRNPNFKAGMKSITSPSCSPDEVIFSPDVHQALYCHLLSGILFRDQVQYVFAVFAHGLVHAFRTFEQVWEEIVTDIKDGVLSNRITVPSVRTAMSKLLTPNPELAETIRTKCMSLSNWYGLIPALFPNAKYVYGIMTGSMEPYVPKLRHYAGDLPLVSHDYGSSEGWIAANVTPRLSPEEATFAVIPNLGYFEFLPVSETGEGEEKPVGLTQVKIGEEYEVVITNYAGLYRYRLGDVVKVIGFYNNTPQLKFICRRNLILSINIDKNTERDLQLSVESAAKRLSEEKIEVIDFSSYIDVSTDPGHYAIFWEISGETNEDVLQDCCNCLDRAFIDAGYVSSRKCKTIGALELRVVAKGTFRKIQEHFLGLGSSAGQFKMPRCVKPSNAKVLQILCENVVSSYFSTAF
[2]
  Detected auxin conjugates: 2,4-D-Asp: No
  Detected auxin conjugates: 2,4-D-Glu: No
[3]
  Detected auxin conjugates: Dicamba-Asp: No
  Detected auxin conjugates: Dicamba-Glu: No
[4]
  Detected auxin conjugates: IAA-Asp: No
  Detected auxin conjugates: IAA-Glu: No

B2: Sm85812: GH3 protein, Selmo1|85812 (protein, listed as Selaginella moellendorffii)
chain: MHSICLKSMEHATKNAAVIQRELLQQILEKNAGTEYLTRHGLDEESNLVDGFHKLPLVEYNDIEADIKRIADGDTGRILCSDPISQFFISSGTTTGRSKLIPVTKEANSRFFRPPLISPAWHRVFTINPDETYLAFWFASKQSLTKGGFKAETVTTSGLNSAHFKRAAASFVTPHKIFQSTSMYQCLYCHLLCGLLRREEVTVVISAFAFALTEAFRVLEQVWSELLEDIEAGSLSSRITDPILRLAMSGIAPPSPELAEQLRREFRSFSMDGIVQRLWPNAKSVVAVTTGAMAPYAPRLRALAGKTPLVCGNYFSSECLIGINLSPASSPATFTVNPEFAYFEFLSYHDGETKLNGLEEQRPVGLTEVTIGEKYEIVVTTRSGLYRYRLGDVVQVAGFFNSSPSLRFLFRRNVVMSVATDKTDEFELQAVVHKASLLLRSSSQLHDFAGYADFSSIPGHYAIFWELNHGGSMDPSTLQDCCELLDVSLNDPYLRGRSSGAIGPLKLCVVRGGSFRELFEQHVARGGSGSQYKSCRCVASKQAIDLLRRNTLQQALSSKFPNPWKLSIKSLELDQ
[2]
  Detected auxin conjugates: 2,4-D-Asp: No
  Detected auxin conjugates: 2,4-D-Glu: No
[3]
  Detected auxin conjugates: Dicamba-Asp: No
  Detected auxin conjugates: Dicamba-Glu: No
[4]
  Detected auxin conjugates: IAA-Asp: Yes
  Detected auxin conjugates: IAA-Glu: No

B3: OsGH3-3: GH3 protein, accession EEE54131 (protein, listed as Oryza sativa)
chain: MLEKKATRSTRVDGVSGEAVIEEFERVTRDAANVQRETLRRILAENGGVEYLRGLGLAGATDPATFRARVPLATHADLEPYIDRIADGDASPVLTAKPATSISLSSGTTQGKRKYLLFNEELVKSTMQIYRISYAFRNREFPVENGKALQFIYSSRETRTKGGLTATTATTNVYRSEEFKATMRDIQSQCCSPDEVIFGPDFAQSLYCHLLAGLLAAGDVQIVSATFAHSVVLAFQTFERAWEDLCADIRRGEVSPSRVTSPAVRRAMAALLAAPNPGLADEVARKCAALSNWYGVIPALWPNARYVYGIMTGSMEHYVKKLRHYAGGLPLVAAEYGASEGWVGANVEPGTPPERATFTVLPDIAYFEFIPLKPVAGDGGYAEAEPVGLTEVAAGELYEVVMTTFAGLYRYRLGDVVKVAGFYNATPKLKFVCRRNLMLSINIDKNSEQDLQLAVDAAARAVLAGEKLEVVDYTSHADVSSDPGHYVVFLELNAADPAAVDGDVMQACCDELDRAFADAGYVGSRKSGAIAPLELRVLQRGTFQKVLRHYLSLGAPVSQFKSPRCVSRSNSGVLQILAGCTVNVFFSSAYD
[2]
  Detected auxin conjugates: 2,4-D-Asp: No
  Detected auxin conjugates: 2,4-D-Glu: No
[3]
  Detected auxin conjugates: Dicamba-Asp: No
  Detected auxin conjugates: Dicamba-Glu: No
[4]
  Detected auxin conjugates: IAA-Asp: Yes
  Detected auxin conjugates: IAA-Glu: No

B4: OsGH3-12: GH3 protein, accession Q53P49 (protein, listed as Oryza sativa)
chain: MLEKEGKLIMSREDEEIMAWFERTTRDAADVQRETLRRILAENAGVEYLRELGLAGLTDAGSFRARVPVVTHADLDPYIQRVADGDASPVLTAKPVTAISLSSGTTQGKRKRLLFNDDLLRSSIRFFHASYAFTNRAFPVEDGRVLQFMYGSRHETTKGGLTATTVMTNLLRSEEFTASMAARSRPRLPSCSPSEVVFSPDFDESLYCHLLCGLLLAGEVRAVSASFAHSIVVALQALERVWRELCADIRRGAASPARVTTPAVRRAVAPILAAPNPALADALERRCAALGDWSGVIPALWPNARYVQATMTGSMEHYVKKLRHYAGGVPLVSGNYASSEGVIGINAEQHAPPESVVFTVLPDAAYFEFIPLKPPCTDAAADDDNPAAAGSSCYVDADDANPVGLTDVVVGEHYEVVMTTFTGLYRYRLGDVVKVAGFHHATPKLRFVCRRSLILSINVDKNSEHDLQLAVDSAAKILAGDGENHKQLEIADYTSHADTSSDPGHYVVFWELNGGGEEDGGGVLQRCCDEMDRAFGADAGYAQSRKTCAIGALELRVLRRGAFQEVLRHYVAGGSSAGQFKMPRCVAPSNAGVLRVLKDNTINIFFSTAYDYD
[2]
  Detected auxin conjugates: 2,4-D-Asp: No
  Detected auxin conjugates: 2,4-D-Glu: No
[3]
  Detected auxin conjugates: Dicamba-Asp: No
  Detected auxin conjugates: Dicamba-Glu: No
[4]
  Detected auxin conjugates: IAA-Asp: No
  Detected auxin conjugates: IAA-Glu: No
